This passage reports Kd results from article PMC4512625 (2015).

Ends that are not written are not given here.

For assay [1], the target named is human SPAK 452-547 with L491A (human, UniProt Q9UEW8 452-545, L491A). The experiment in a line: FP.
Another assay addresses human SPAK 452-547(end) (human, UniProt Q9UEW8 452-545). The experiment in a line: FP.

B1: Lumio-Green-labelled RFXV-motif-possessing peptide derived from WNK4 (EP4543) (peptide)
peptide: CCPGCCGGGGSEEGKPQLVGRFQVTSSK
modifications: not fully specified (N-terminus); cysteine pairing not given here; also: Lumio Green fluorophore bound to the N-terminal CCPGCC linker
The term Kd denotes the concentration at which binding is half-saturated. Consider B1, for which the equilibrium dissociation constant (Kd) was determined as 88.2 µM in assay [1] and 0.6 µM with human SPAK 452-547(end).
